The supplement of paper PMC12042874
± gives the uncertainty stated by the source.

experiment: amyloid nucleation score (Sup35N fusion, yeast selection) (log enrichment); library NNK2; higher = more nucleation; inactive = no reads after selection
Summary of the method: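 DiMSum was used to calculate nucleation scores as log enrichment of output over input reads, centred on the mode score of non-aggregating sequences. Sequences with fewer than 100 input reads were not scored. Input and output came from Illumina sequencing of plasmid inserts in psi-negative yeast expressing peptides of 20 random codons fused to Sup35N, induced 24 hours with 100 μM copper sulfate and then grown 7 days at 30°C on medium lacking adenine and uracil.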

Substance | amyloid nucleation score
VRCRDENHVVELSGGEVPDS | 0.066 ± 1
VRDDCARWK | 0.327 ± 0.45
VRIFSVCYKHLMGHCSSSA | -0.398 ± 0.31
VRIFWTVTLFDCRLLRWLSN | 0.045 ± 0.38
VRKRNVFFSSSFSSQRSGNC | -0.327 ± 0.63
VRLFLAIMVYVLHSHHRYAD | 0.978 ± 0.74
VRLFVFSKVKGLIMVNCSWK | -1.35 ± 0.44
VRLNDWMVHLND | 0.752 ± 0.35
VRLNMFFSGEFCQGMQLWVS | inactive
VRLRASDKCLNV | 1.59 ± 0.27
VRLVNAVNRRTKIHDIYLRV | 0.664 ± 0.26
VRNSSV | inactive
VRPNSLRHILASLCFLGGEE | 7.416 ± 0.032
VRSISASLSAMIYR | -0.925 ± 0.45
VRSVCRGTHFSK | 0.711 ± 0.42
VRTWISDSCSVYWSSRLA | 5.06 ± 0.084
VRVEERSVTAYRFMTKPAWW | 4.88 ± 0.096
VRWAKNNRMTLYLKITLRAK | -0.951 ± 0.37
VRYGDRSGGLYLKRYFMLSF | inactive
VSARGSWFLTTSAAC | -1.29 ± 1.1
VSCCCFFGLTLAVLGHSEVS | 3.55 ± 0.12
VSCYACREFMRLIVISGCLC | 3.69 ± 0.042
VSELGSGSFIFCTFLADFHM | 6.3 ± 0.079
VSFNGSVGMS | -0.907 ± 1.1
VSGFFSDHA | -1.06 ± 1.1

Substance | amyloid nucleation score
VSGRDHTNNTGLYAWLHFCY | -0.493 ± 0.63
VSHSSIWSGSLKKSVSCDHV | inactive
VSISCSVWIMGRVYLIRYSG | -1.36 ± 0.78
VSKMGYRDALVAREGLCGVV | 0.072 ± 0.38
VSLLWYHFGWLLDCFWYRWS | 0.429 ± 0.8
VSMGNGARH | 0.194 ± 0.2
VSNLTQVAEVRQSNGGVFCG | 0.189 ± 0.39
VSRFYCKYYSAQWIRYGRAC | -0.544 ± 0.36
VSRGGKHGVQIT | inactive
VSSAHYV | -0.657 ± 0.76
VSSLFIEDFFFNRTSVMYIG | 0.103 ± 0.25
VSSPCGRFSFNNNGGKVWTW | -0.111 ± 0.61
VSSVRIILLAWWSMRTLYFD | -2.43 ± 0.78
VSTRSLF | inactive
VSVKRGAPKVGSTGPVYTCG | -0.306 ± 0.5
VSWAVGQGWTVRSSPRVCGE | 0.267 ± 0.42
VSWDISMNEVADWVVGAGGA | 1.13 ± 0.42
VSYEVVINRYFGKHCCGTII | inactive
VTALDLMNGIWSRNMPGEVV | -0.18 ± 0.19
VTALDMFVLSWGCGWGMN | 3.06 ± 0.17
VTCGV | 0.179 ± 0.56
VTFYLGSSE | 0.155 ± 1.1
VTGTYFLVLITCA | 4.27 ± 0.065
VTIRDLFYGHVRQPDSQVVI | 0.883 ± 0.52
VTKDCNMRMKCTSSIIFLKN | -0.459 ± 1.1

Substance | amyloid nucleation score
VTNSSMQMSSWADPSVKSGM | 0.032 ± 0.32
VTTVRSPILLTLRTVPF | 0.425 ± 0.38
VVELKELAYQGNGIVLIMED | -0.066 ± 0.41
VVFCGVFLCDCDNGESSSRY | 8.989 ± 0.071
VVFRLRSNRGNVVPRSWAWC | 1.71 ± 0.13
VVGFF | inactive
VVGSFFCQNMKHLYRELRQS | inactive
VVHGIETIIVDPDRALVGDG | -0.356 ± 0.32
VVIQPGTYFYLCNIFA | -1.58 ± 0.78
VVLFWLNCRRVYFLGSKYRA | 0.331 ± 0.8
VVLGLDNPIHLIFLKDVNYC | -1.5 ± 1.1
VVMVVCMV | 0.36 ± 0.62
VVNVVSGYGAE | 0.619 ± 0.19
VVPIGETR | 1.49 ± 0.47
VVRQTVSDCVQASTRSQLLK | 0.522 ± 0.35
VVRYLYRWTTVVGLHGGSHN | -0.786 ± 0.43
VVSILRLDSVGRVVIEAWVR | 0.223 ± 0.77
VVSINVQVDHVCYAFSQVSQ | 8.211 ± 0.062
VVSITNINNMSSMRSEPEYK | 6.98 ± 0.078
VVSKVLNKYF | 0.189 ± 0.65
VVSRVECALAWVRNDIEALT | 0.343 ± 0.8
VVSTESVNVI | 0.889 ± 0.27
VVVSRTITLSTSYEFYIVKY | 0.798 ± 0.32
VVYWRWTTPDLRVKAHGLFF | 0.438 ± 0.5
VWAHL | -0.191 ± 0.35

Substance | amyloid nucleation score
VWEGTGPLEICWFCWGEW | 2.5 ± 0.17
VWFMEVNVKYECTPSYEGRL | 3.81 ± 0.073
VWGLLTIPCVSQIRCRCGFS | 0.749 ± 0.53
VWGRMLRVGFGEV | 0.066 ± 0.63
VWHVDTAVLTRA | 1.08 ± 0.41
VWIFSSSIKTTLYKHLLSNT | -0.539 ± 0.74
VWLNHLTTIYYCNHKLCLLL | 2.17 ± 0.22
VWLYCSEQDRCVMLASRELL | 0.465 ± 0.34
VWNYISLNEAM | -0.946 ± 0.55
VWPLFAEDGCNANGVVNQVS | 0.955 ± 0.22
VWPTMCTVFAMF | 2.51 ± 0.065
VWVKRVDASSCAVS | 1.26 ± 0.38
VWWSEVTAVSNCQRVSYARP | 2.94 ± 0.075
VYCIVRMYIALWCYVLDYVE | 0.34 ± 0.36
VYFLMLDY | -0.526 ± 0.49
VYFSQDQFSYYFTRVESVEV | -0.191 ± 0.45
VYFTSVMNSCVYVSAVCEMC | 6.953 ± 0.046
VYHDHLKLWSKGTSRVAWAL | 2.34 ± 0.16
VYHLLFSGC | 0.219 ± 0.33
VYIYSGFVVSWLRFFGVMRP | -0.394 ± 1.1
VYMFCRGGTHEAYFFHTGLC | -0.256 ± 0.79
VYMKKINSFITMMSVHGNCS | 5.11 ± 0.068
VYMPYHLSYMLEPRQNSVLS | -0.744 ± 1.1
VYNFSFSNSNVK | 6.669 ± 0.047
VYPDSIVGFEADVNGCVVVP | 0.713 ± 0.38

Substance | amyloid nucleation score
VYRYIVIYPFVKWHKTDRFC | -0.805 ± 0.33
VYSPFLICI | 0.174 ± 1
VYSRDFRIQ | -1.1 ± 0.54
VYTCSIFYLGLVYRHISDSS | inactive
VYVSYVAIFLPEPLVCDNVE | 7.192 ± 0.04
WASIV | 0.049 ± 0.8
WASWRSYSMWLDLLCFRSRG | 0.155 ± 0.33
WAWGCWVHSESVAWSCMCKA | 0.476 ± 0.28
WAYPRNVQ | 0.327 ± 0.38
WCTLFFQCRRPG | 5.554 ± 0.049
WCVRELLE | -0.077 ± 0.39
WDIYQVGGTMSLDVFVKV | -0.2 ± 0.3
WEDAVDSSVRFC | -0.211 ± 0.61
WEDKVAGSMGAWDDLG | 0.791 ± 0.67
WEGNEHWKCTENLVLAKTGH | inactive
WFDIKL | -0.367 ± 0.48
WFHVAAYAFRGTCYHLGGVL | 4.39 ± 0.096
WFIASLLYISLWFYICSTMS | 0.878 ± 0.24
WFKVH | 0.26 ± 0.8
WFVGCHTVRR | 0.84 ± 0.33
WGLGCMSQSTLHGSLISSVR | -0.5 ± 0.44
WGLHYSRYHLHV | -0.494 ± 0.27
WGLSRNSNIGHRVLIVAGNL | -0.683 ± 0.35
WGNVLNLYNR | 4.53 ± 0.081
WGQNNAEAFNYALMWVFRVW | 2.49 ± 0.11

Substance | amyloid nucleation score
WGSSFR | 0.592 ± 0.24
WGTDISYMGRSGCTLSGCIY | -1.13 ± 0.55
WHCNFMHWVHKR | 6.383 ± 0.06
WILGKFTDKFRSSRHRRNRA | 0.787 ± 0.25
WINPFAQWMNSVQIFK | 0.466 ± 0.12
WISTTYASLDNPSHKGIVLM | -0.302 ± 0.48
WKESGVHRHFHTSIGKDRVL | inactive
WKFRNN | inactive
WKKSMKIVNKYAVSLPDVGR | 0.29 ± 0.51
WKMWRVKAVNR | 0.935 ± 0.35
WLCVRNVLMCQW | 7.037 ± 0.042
WLFRGSIVKWTPHRPDRYAC | -0.088 ± 0.46
WLIKPVAPLSVYWSVWWSVV | 0.3 ± 0.55
WLLMYPLI | -1.04 ± 0.34
WLLNLERDIFLLTLSGRMIK | 0.449 ± 0.8
WLLNYYRGGVWLGLWTRKE | -1.3 ± 0.48
WLRDYRLWATT | -0.223 ± 0.63
WLVMEATLAFIRYTRGSFSL | -0.432 ± 1.1
WLYALWCDWSA | 3.97 ± 0.061
WMNFCPDVGHANGGVPNRLG | 0.583 ± 0.37
WMRFYSYNGIY | -1.26 ± 1.1
WMRSIWLSQHFLS | 0.292 ± 0.41
WNINRIPFKVRWRAIFHMYH | -1.25 ± 0.37
WNTISRLCDLWLRVAYGSLV | 0.461 ± 0.65
WPKSAILIHCRVANGLCRFV | 6.586 ± 0.046

Substance | amyloid nucleation score
WPVHV | -1.38 ± 1.1
WPYGVGLINGWSTMVSYKVL | 0.325 ± 0.8
WQIGCLADIYSYLPDGNTVG | -0.389 ± 0.4
WQKLLIDYSSSTYDEALGT | 0.833 ± 0.8
WRAIALLEARTGSRQ | 1.08 ± 0.14
WRLVHCIHTIGYCMPVRLRG | 3.25 ± 0.088
WRPKPKWFLGGYGWTGERRL | 0.418 ± 0.51
WRSLLVLAFHLRLLYVSSMK | inactive
WRVGVK | 0.312 ± 0.25
WRYRHELEACWRHHSNSWYG | 3.96 ± 0.052
WSEISWTIQGCFVRHDALLG | 0.087 ± 0.56
WSGLNSNRSVDNPSISTGWS | -0.532 ± 0.56
WSKLYTFIFLASNKLLTWPC | inactive
WSLQSQGYRILDGYGV | 0.6 ± 0.44
WSMCFMPVRWSFSGTIYMHK | 0.472 ± 0.56
WSSHFWMFGSAVSQAWGRGW | 3.17 ± 0.074
WSVCARYSSGVCIAHCTQMK | 1.3 ± 0.25
WSVDYDGCLCS | -0.094 ± 0.45
WSVYKVLYCLTGFRFQRSRL | inactive
WSYHF | -0.305 ± 0.8
WSYRTESIHLYYLRPIFKIV | -1.11 ± 0.54
WTCAAFFEMDDRQGIVEIFI | 0.644 ± 0.81
